Assays:
SSB [1] = target: T1, SSB (Saccharolobus solfataricus, UniProt Q97W73 1-148); experiment: EMSA; with NurA/HerA: SSB binding strongly stimulated; EMSA: 5 pmol fluorescent DNA in 10 ul, 20 mM HEPES/NaOH pH 7.5, 35 mM beta-mercaptoethanol, 500 mM NaCl, 50 mM MgCl2 (so in the source), 10 min room temperature, 5% PAGE in 0.5x TBE; conditions: protein: recombinant
T1 sequence: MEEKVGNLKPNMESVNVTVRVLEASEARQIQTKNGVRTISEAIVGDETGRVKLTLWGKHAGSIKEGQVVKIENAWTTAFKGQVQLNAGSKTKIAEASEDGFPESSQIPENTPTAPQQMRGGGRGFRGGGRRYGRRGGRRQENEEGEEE

HerA [2] = target: T2, HerA (Saccharolobus solfataricus, UniProt Q97WG8 1-500); experiment: EMSA; in NurA/HerA with SSB: HerA binding not reduced on fork; EMSA: 5 pmol fluorescent DNA in 10 ul, 20 mM HEPES/NaOH pH 7.5, 35 mM beta-mercaptoethanol, 500 mM NaCl, 50 mM MgCl2 (so in the source), 10 min room temperature, 5% PAGE in 0.5x TBE; conditions: protein: recombinant; chain copies: 6; fork 1:2; 50 bp duplex, unpaired 5' T20 of strand 1 and 3' 20 nt of strand 2
T2 sequence: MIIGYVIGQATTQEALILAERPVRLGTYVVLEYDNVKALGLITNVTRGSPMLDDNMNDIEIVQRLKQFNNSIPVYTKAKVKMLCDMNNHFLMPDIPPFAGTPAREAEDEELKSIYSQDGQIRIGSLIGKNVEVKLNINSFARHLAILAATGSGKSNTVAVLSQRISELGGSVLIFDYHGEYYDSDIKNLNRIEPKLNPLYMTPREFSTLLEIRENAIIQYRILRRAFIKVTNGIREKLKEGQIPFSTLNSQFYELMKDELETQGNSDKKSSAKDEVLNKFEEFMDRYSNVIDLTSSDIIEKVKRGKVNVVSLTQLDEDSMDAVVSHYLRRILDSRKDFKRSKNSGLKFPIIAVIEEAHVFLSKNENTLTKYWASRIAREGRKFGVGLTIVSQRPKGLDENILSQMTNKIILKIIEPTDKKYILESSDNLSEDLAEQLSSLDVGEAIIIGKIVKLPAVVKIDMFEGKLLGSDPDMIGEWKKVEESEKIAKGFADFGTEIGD

SSB [3] = target: T1, SSB; experiment: EMSA; 2.5 pmol NurA/HerA, 1.5 pmol SSB, increasing ATP: no effect of ATP on stimulation; EMSA: 5 pmol fluorescent DNA in 10 ul, 20 mM HEPES/NaOH pH 7.5, 35 mM beta-mercaptoethanol, 500 mM NaCl, 50 mM MgCl2 (so in the source), 10 min room temperature, 5% PAGE in 0.5x TBE; conditions: protein: recombinant; chain copies: 2; single strand
HerA [4] = target: T2, HerA; experiment: EMSA; HerA alone, increasing amounts; EMSA: 5 pmol fluorescent DNA in 10 ul, 20 mM HEPES/NaOH pH 7.5, 35 mM beta-mercaptoethanol, 500 mM NaCl, 50 mM MgCl2 (so in the source), 10 min room temperature, 5% PAGE in 0.5x TBE; conditions: protein: recombinant; chain copies: 6; single strand
NurA = target: T3, NurA (Saccharolobus solfataricus, UniProt Q97WH1 1-339); experiment: EMSA; with SSB: NurA binding not significantly influenced; EMSA: 5 pmol fluorescent DNA in 10 ul, 20 mM HEPES/NaOH pH 7.5, 35 mM beta-mercaptoethanol, 500 mM NaCl, 50 mM MgCl2 (so in the source), 10 min room temperature, 5% PAGE in 0.5x TBE; conditions: protein: recombinant; chain copies: 2; single strand
T3 sequence: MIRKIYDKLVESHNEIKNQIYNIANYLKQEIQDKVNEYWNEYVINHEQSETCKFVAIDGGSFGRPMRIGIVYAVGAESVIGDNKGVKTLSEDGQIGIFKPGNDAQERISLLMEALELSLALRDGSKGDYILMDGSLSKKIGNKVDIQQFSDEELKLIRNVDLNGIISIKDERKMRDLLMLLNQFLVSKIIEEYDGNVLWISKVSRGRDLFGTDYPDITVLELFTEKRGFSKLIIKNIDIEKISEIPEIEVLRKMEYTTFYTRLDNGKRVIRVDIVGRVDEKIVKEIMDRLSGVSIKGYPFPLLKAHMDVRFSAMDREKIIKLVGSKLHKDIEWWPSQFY

B1: 70 leadCy5 (70 mer) (ssDNA)
DNA: CGTGACTTGATGTTAACCCTAACCCTAAGAATTCGGCTTAAGTGAGTGTGAGGATATCATGTACGATAGC
binding result (SSB [1]; chain copies: 2, single strand): binds

B2: Forked substrate (70 lagFork/70 leadCy5) (dsDNA)
DNA 1: TTTTTTTTTTTTTTTTTTTTCACACTCACTTAAGCCGAATTCTTAGGGTTAGGGTTAACATCAAGTCACG
DNA 2: CGTGACTTGATGTTAACCCTAACCCTAAGAATTCGGCTTAAGTGAGTGTGAGGATATCATGTACGATAGC
binding result (HerA [2]): binds
binding result (SSB [1]; fork 1:2, 50 bp duplex, unpaired 5' T20 of strand 1 and 3' 20 nt of strand 2): binds

GCCGTGATCACCAATGCAGATTGACGAACCTTTGCCCACGT (ssDNA) [40 merCy3]
binding result (SSB [1]; chain copies: 2, single strand): binds

GTTTTCCCAGTCACGAC (ssDNA) [17 merTAMRA]
binding result (SSB [3]): binds
binding result (HerA [4]): binds
binding result (NurA): binds

GCTATCGTACATGATATCCTC (ssDNA) [21 merTAMRA]
binding result (SSB [1]; chain copies: 2, single strand): binds
